Assay results as given in patent publication US20220226473A1, “Nucleic acid nanocarrier drug and preparation method thereof, pharmaceutical composition and application thereof” (BAI YAO ZHI DA (BEIJING) NANOBIO TECHNOLOGY CO., LTD., priority 2018, published 2022).
{Biotin} = biotin of the strand

B1: R-17: extension fragment deformation+core short-sequence RNA nanoparticle, SEQ ID NO: 126-128, 3′ biotin, 2′F (nucleic acid)
chain 1: GCGGCGAGCGGCGAGGAGCGUUGGGGCCGGAGGCCGG
chain 2: CCGGCCUCCGGCCCCUUCGCCGCCAGCCGCC
chain 3: GGCGGCAGGCGGCCAUAGCCCUCGCCGCUCGCCGC
modifications: chain 1: 2'-fluoro at CU, RNA at AG, 3' {Biotin}, backbone not given here; chain 2: 2'-fluoro at CU, RNA at AG, backbone not given here; chain 3: 2'-fluoro at CU, RNA at AG, backbone not given here; three-strand RNA nanoparticle
B2: R-18: extension fragment deformation+core short-sequence RNA nanoparticle, SEQ ID NO: 129-131, 3′ biotin, 2′F (nucleic acid)
chain 1: GCGGCGAGCGGCGAGCAGCGUUCGGGCCGGAGGCCGG
chain 2: CCGGCCUCCGGCCCGUUCGGCGCCAGCCGCC
chain 3: GGCGGCAGGCGCCCAUAGCGCUCGCCGCUCGCCGC
modifications: chain 1: 2'-fluoro at CU, RNA at AG, 3' {Biotin}, backbone not given here; chain 2: 2'-fluoro at CU, RNA at AG, backbone not given here; chain 3: 2'-fluoro at CU, RNA at AG, backbone not given here; RNA nanoparticle drug carrier
B3: R-20: extension fragment deformation+core short-sequence RNA nanoparticle, SEQ ID NO: 135-137, 3′ biotin, 2′F (nucleic acid)
chain 1: GCGGCGAGCGGCGACGAGCGUUGCGGCCGGAGGCCGG
chain 2: CCGGCCUCCGGCCGCUUCGCCGCCAGCCGCC
chain 3: GGCGGCAGGCGGCCAUAGCCGUCGCCGCUCGCCGC
modifications: chain 1: 2'-fluoro at CU, RNA at AG, 3' {Biotin}, backbone not given here; chain 2: 2'-fluoro at CU, RNA at AG, backbone not given here; chain 3: 2'-fluoro at CU, RNA at AG, backbone not given here; three-strand RNA nanoparticle carrier
B4: R-19: extension fragment deformation+core short-sequence RNA nanoparticle, SEQ ID NO: 132-134, 3′ biotin, 2′F (nucleic acid)
chain 1: GCGGCGAGCGGCGAGCAGCGUUCGGGCCGGAGGCCGG
chain 2: CCGGCCUCCGGCCCGUUCGGCCCCAGCCGCC
chain 3: GGCGGCAGGGGCCCAUAGCGCUCGCCGCUCGCCGC
modifications: chain 1: 2'-fluoro at CU, RNA at AG, 3' {Biotin}, backbone not given here; chain 2: 2'-fluoro at CU, RNA at AG, backbone not given here; chain 3: 2'-fluoro at CU, RNA at AG, backbone not given here; three-strand RNA nanoparticle carrier
B5: D-8: extension fragment deformation+core short-sequence DNA nanoparticle, SEQ ID NO: 141-143, a-strand 3′ biotin (nucleic acid)
chain 1: GCGGCGAGCGGCGAGGAGCGTTGGGGCCGGAGGCCGG
chain 2: CCGGCCTCCGGCCCCTTCGGGGCCAGCCGCC
chain 3: GGCGGCAGGCCCCCATAGCCCTCGCCGCTCGCCGC
modifications: chain 1: DNA, 3' {Biotin}, backbone and methylation of C not given here; chain 2: DNA, backbone and methylation of C not given here; chain 3: DNA, backbone and methylation of C not given here; three-strand DNA nanoparticle carrier
B6: R-21: extension fragment deformation+core short-sequence RNA nanoparticle, SEQ ID NO: 138-140, 3′ biotin, 2′F (nucleic acid)
chain 1: GCGGCGAGCGGCGACGAGCGUUGCGGCCGGAGGCCGG
chain 2: CCGGCCUCCGGCCGCUUCGGCGCCAGCCGCC
chain 3: GGCGGCAGGCGCCCAUAGCCGUCGCCGCUCGCCGC
modifications: chain 1: 2'-fluoro at CU, RNA at AG, 3' {Biotin}, backbone not given here; chain 2: 2'-fluoro at CU, RNA at AG, backbone not given here; chain 3: 2'-fluoro at CU, RNA at AG, backbone not given here; three-strand RNA nanoparticle carrier

Columns and labels:
[1] = Electric potential (zeta potential) measurement of self-assembly products; assay type: physicochemical; conditions: result over 3 detections, at 25 DEG C.
Experimental: Measurement method: preparing a potential sample (the self-assembly product is dissolved in ultrapure water) and putting into a sample pool, opening a sample pool cover of an instrument, and placing the instrument;
opening software, clicking a menu MeasUre€ManUal, so a manual measurement parameter setting dialog box appears;
setting a software detection parameter;
and then clicking Ok to complete the settings, after a measurement dialog box appears, clicking start to start.
and then clicking Ok to complete the settings, after a measurement dialog box appears, clicking Start to start.
Measurement method: preparing a potential sample (the self-assembly product is dissolved in ultrapure water) and putting into a sample pool, opening a sample pool cover of an instrument, and placing the instrument:
Measurement result potential detection results of the 7 groups of the extension fragment deformation+core short-sequence RNA nanoparticles at 25 DEG C. are as follows:
setting a software detection parameter; and then
clicking Ok to complete the settings, after a measurement dialog box appears, clicking Start to start.
Measurement result potential detection results of the 7 groups of the extension fragment deformation+core short-sequence DNA nanoparticles at 25 DEG C. are as follows: […]

[2] = TM value detection by solubility curve method (SYBR Green I); assay type: physicochemical
Experimental: A solubility curve method is used to detect TM values of the 7 groups of the extension fragment deformation+core short-sequence RNA nanoparticles, and the samples are consistent with the potential samples.
(1) After the sample is diluted with ultrapure water, 5 μg of the diluted sample is mixed with 2 μL of SYBR Green I dye (diluted by 1:200), a final volume is 20 μL, and the dilution concentration is as follows:
(2) It is incubated for 30 min in the dark at a room temperature; and
(3) On-machine detection is performed, a program is set to start at 20 DEG C., the temperature rises per second from 0.1 DEG C. to 95 DEG C., and reading is performed every 5 s.
Due to the particularity of the RNA samples, a temperature corresponding to ½ RFUmax in a range of 20 to 90 DEG C. is used as a sample Tm value in this test.
A solubility curve method is used to detect TM values of the 7 groups of the extension fragment deformation+core short-sequence DNA nanoparticles, and the samples are consistent with the potential samples.
(1) After the sample is diluted with ultrapure water, 5 μg of the diluted sample is mixed with 2 μL of SYBR Green I dye (diluted by 1:200). a final volume is 20 μL, and the dilution concentration is as follows: […]

[3] = Particle size measurement (DLS hydrodynamic size); assay type: physicochemical; conditions: DLS hydrodynamic size
Text: 1. Preparing a potential sample (conventional-sequence DNA self-assembly product D-7) and putting into a sample pool, opening a sample pool cover of an instrument, and placing the instrument;
2. opening software, and clicking a menu, so a manual measurement parameter setting dialog box appears;
3. setting a software detection parameter; and then
4. clicking Ok to complete the settings, when a measurement dialog box appears, clicking Start to start, a DLS measurement value result of a hydrodynamic size of the self-assembly product D-7 is shown below in Table 40: […]

[4] = Drug loading rate of nucleic acid nanoparticles (chemical loading, absorbance standard curve); assay type: physicochemical; design: unit not given here; conditions: chemical loading method of Embodiment 5
Text: According to the chemical loading method (unless otherwise specified, the method is the same as that of Embodiment 5) of Embodiment 5, the RNA nanoparticles formed by the self-assembly of the previous R-15, R-16, R-17, R-18, R-19, R-20 and R-21 in Embodiment 9, and the DNA nanoparticles formed by the self-assembly of the D-8, D-9, D-10, D-11, D-12, D-13 and D-14 in Embodiment 10 are respectively used as doxorubicin loading carriers, doxorubicin loading rates measured are respectively as follows:
According to the chemical loading method (unless otherwise specified, the method is the same as that of Embodiment 5) of Embodiment 5, the DNA nanoparticles formed by the self-assembly of the previous D-10 and D-14 in Embodiment 10 are used as a daunorubicin loading carrier.
According to a chemical loading method of Embodiment 5 (unless otherwise specified, the method is the same as that of Embodiment 5, the same molar number of the epirubicin is used as a loading amount), nucleic acid nanoparticles (a molecular weight is 29550, it is similar to the RNA nanoparticles in Embodiment 1, and a difference is that a fluorescent label on a c-strand is Cy5) are used as a carrier, and respectively loaded with: epirubicin, methotrexate, pirarubicin, daunorubicin, […], 10-hydroxycamptothecin, aspirin and gemcitabine.
Herein, when a standard curve is drawn, the absorbance of the above drugs on the microplate reader is measured respectively. The absorbance of the epirubicin, methotrexate, pirarubicin, daunorubicin, […], 10-hydroxycamptothecin, aspirin and gemcitabine is respectively detected at the following wavelengths: 492 nm, 303 nm, 492 nm, 492 nm, 265 nm, 384 nm, 225 nm and 268 nm. The standard curves obtained correspondingly are respectively shown in FIG. 48a, FIG. 49, FIG. 50sa, FIG. 51, FIG. 52, FIG. 53, FIG. 54a and FIG. 55. […]

HepG2 cells [5] = test: CCK8 toxicity of DNA nanoparticles and carrier drugs; assay type: cell-based; conditions: HepG2, CCK8, 72 hours
Experimental: A CCK8 method is used to detect the toxicity of DNA nanoparticles and carrier drugs to HepG2.
2. A sample to be tested is diluted according to the following table and added: the original culture medium is removed and 100 μL of a culture medium of the sample to be tested with the different concentration is added, and there are 3 replicate wells in each group.
In the present embodiment, the loaded drug and the blank carrier are firstly prepared into 100 μM of stock solution using the PBS, and then diluted with the complete culture medium (biotin-free DMEM). The original drug doxorubicin is firstly prepared into 100 NM of stock solution by using the DMSO, and then diluted with the complete culture medium (biotin-free DMEM). The DMSO is directly diluted with the complete medium (biotin-free DMEM).
3. After the sample to be tested is added, the 96-well plate is placed in an incubator under 37 DEG C. and 5% CO2 and incubated for 72 hours.
4. A kit is taken out and melted at a room temperature, 10 μL of CCK-8 solution is added to each wall, or the CCK8 solution is nixed with the culture medium at a ratio of 1:9, and then added to the well in an amount of 100 μL/well.
5. It is continuously incubated in the cell incubator for 4 hours, and a length of time depends on experimental conditions such as a cell type and a el density.
6. A microplate reader is used to measure an absorbance at 450 nm.
7. Calculation: cell viability (%)=(OD experimental group−OD blank group)[…]/(OD control group−OD blank group), IC50 is calculated by GraphPad Prism 5.0.

HepG2 cells [6] = test: Cell binding of DNA nanoparticles and carrier drugs by FACS; assay type: cell-based; conditions: incubated at 37 DEG C. for 2 h, flow cytometry
Experimental: 1. A cell state is adjusted to a logarithmic growth phase, the medium is changed into a medium without biotin and folic acid, and it is incubated overnight in an incubator at 37 DEG C.
2. After incubation, cell suspension is trypsinized and collected, and centrifuged at 1000 rpm for 5 min, after the concentration is adjusted, a 2×10^6-5×10^6 cell/EP tube is taken and washed twice with 1 mL/tube of 1% BSA-PBS, and cells at the bottom of the tube is observed to prevent them from being absorbed.
3. A substance to be tested is dissolved, and the substance to be tested is diluted to a use concentration.
4. Cell supernatant is absorbed, 100 μL of a corresponding sample is added to each tube in order, light is avoided, and it is incubated at 37 DEG C. for 2 h.
5. It is washed twice with 1% BSA-PBS; and centrifuged at 1000 rpm for 5 min.
6. Finally, it is precipitated with 300 μL of PBS cell resuspension, and flow Cytometric on-machine detection (the blank carrier used in the present embodiment is labeled by Quasar670, and the doxorubicin in the carrier drug has its own fluorescence, so the detection may be performed through FL4-APC and FL2-PE respectively) is performed.

[7] = RNA nanoparticles, temperature corresponding to ½ RFUmax in 20 to 90 DEG C.

| Molecule | Potential ZP, Experiment result [1] [mV] | TM value (° C.) [2, 7] [°C] | Mean particle size (nm) [3] | doxorubicin loading rate [4] | IC50 (HepG2 cells [5]) [µM] | TM value (° C.) ([2]; DNA nanoparticles) [°C] | Positive rate (HepG2 cells [6]; HepG2, 1 μM) [%] | Positive rate (HepG2 cells [6]; HepG2, 2 μM) [%] |
| --- | --- | --- | --- | --- | --- | --- | --- | --- |
| B1 | −23.50 | 55.2 | 7.592 nm | 30.9 | – | – | – | – |
| B2 | −21.27 | 54.5 | 7.520 nm | 34.1 | – | – | – | – |
| B3 | −17.90 | 59.5 | 7,110 nm | 30.2 | – | – | – | – |
| B4 | −18.30 | 54.0 | 6.936 nm | 27.1 | – | – | – | – |
| B5 | −30.23 | – | 7.460 nm | 28.0 | > 1 | 48.5 | 96.9 | 98.4 |
| B6 | −16.10 | 65.0 | 6.720 nm | 20.1 | – | – | – | – |
